Laboratory results taken from the supplement of paper PMC11780869.

Tested on: Bacillus subtilis
Assay: cleaved RNA product abundance (RNA/gDNA barcode ratio) relative to median wild-type variant (ratio to wild type); higher = more accumulation of the downstream cleavage product
Protocol: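 MPRA in B. subtilis. Mutagenized RNase Y cleavage-site regions (9% mutation rate) were inserted into a barcoded reporter mRNA (truncated aprE or tetM). Cells were grown in LB at 37°C to OD600 0.3. The cleaved RNA isoform was gel-purified and its barcodes counted; the RNA:gDNA barcode ratio was normalised to the median wild-type variant, and the median over barcodes is reported per variant. The printed sequence is the variable window only; the reporter flanks are not printed.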

[1] = experiment (reporter, strain, medium): exp 2b: truncated aprE reporter, strain BJT200, cleavage site: cggR-gapA (positions -7 to +36 mutated)
[2] = experiment (reporter, strain, medium): exp 4a: truncated aprE reporter, strain BJT201 with 2% xylose (RNase J1 expressed), cleavage site: cggR-gapA (positions -7 to +36 mutated)
[3] = experiment (reporter, strain, medium): exp 8a: truncated aprE reporter, strain BJT201 with 2% xylose (RNase J1 expressed), cleavage site: glnRA (positions -5 to +31 mutated)

| Sequence | cleaved RNA product abundance [1] | cleaved RNA product abundance [2] | also measured |
| --- | --- | --- | --- |
| ACAGACGAAGGAGCCGCAAAGAAGTTATTAAGGGATGAATAATCCCTGAATATATATATCTCTCACTTATTTAAA | 0.477 | 0.598 |  |
| ACAGACGAAGGAGCCGCAAAGAAGTTATTAAAGGATGAATAATCCCTCAGTATAAATATCTCTCACTTATTTAAA |  | 0.122 |  |
| CGACATGTCCCGCTTCTTTCATTAATCTGTTAGCAACTGTTTTGCTAAATACATTTACCTTTTAAGAGGAGGAAT |  |  | cleaved RNA product abundance [3]: 1.01 |
| ACAGACGAAGGAGCCGCAAAGAAGATATTAAGGGTTGAATAATCCCTCAATATAAATATCTCTCACTTATTTAAA | 0.43 |  |  |
| ACAGACGAAGGAGCCGCAAACAAGTTAATAAGGGATGAATAATCCCTCAATATAAATATCTCTCACTTATTTAAA |  | 0.274 |  |
| ACAGACGAAGGAGCCGCAAAGAAGTTATCAAGGGATGAATAAACCCTCAATATAAATATCTCTCACTTATTTAAA | 0.148 | 0.205 |  |
| ACAGACGAAGGAGCCGCAAAGAAGTTATTAAGGGATGAATAAACCATCAATATAAATATCTCTCACTTATTTAAA | 0.125 | 0.101 |  |
| ACAGACGAAGGAGCCGCAAAGTAGTTATTAAGGGATGAATAATCCATCAATATAAATATCTCTCACTTATTTAAA | 0.187 | 0.161 |  |
| ACAGACGAAGGAGCCGCAAAGAAGTTATTCAGCGATGAATAATCCCTCAATATAAATATCTCTCACTTATTTAAA |  | 0.0886 |  |
| ACAGACGAAGGAGCCGCAAAGAAGTTAATAAGGCATGAATAATCCCTCAATATAAATATCTCTCACTTATTTAAA | 0.0718 | 0.104 |  |
| CGACATGTCCCGCTTCTTTCATTAATCCGTTAGCAACTATTATGCTATATACATTTACCTTTTAAGAGGAGGAAT |  |  | cleaved RNA product abundance [3]: 0.785 |
| ACAGACGAAGGAGCCGCAAATAAGTTATTAAGGGATGAATAATTCCTCAATATAAATATCTCTCACTTATTTAAA |  | 0.547 |  |
| ACAGACGAAGGAGCCGCAAAGAAGTTATTAAGGGATGAATAATCCCTCAATATAAATCTCTCTCACTTATTTAAA | 0.652 | 0.679 | cleaved RNA product abundance (experiment (reporter, strain, medium): exp 6: tetM reporter, strain 168, cleavage site: cggR-gapA (positions -7 to +36 mutated)): 0.701 |
| CGACATGTCCCGCTTCTTTCATTAATCCGTTAGCAACTGATTTGCTATATACATTTACCCTTTAAGAGGAGGAAT |  |  | cleaved RNA product abundance [3]: 0.843 |
| CGACATGTCCCGCTTCTTTCATTAATCCGTTAGCAACTATTTTGCCATATACATTTACCTTTTAAGAGGAGGAAT |  |  | cleaved RNA product abundance [3]: 0.121 |
| ACAGACGAAGGAGCCGCAATGAAGTTATTAAGTGATGAATAATCCCTCAATATAAATATCTCTCACTTATTTAAA | 0.0987 |  |  |
| CGACATGTCCCGCTTCTTTCATTAATCCGTTAGCAACAGTTTTGCTATATACATATACCTTTTAAGAGGAGGAAT |  |  | cleaved RNA product abundance [3]: 1.16 |
| CGACATGTCCCGCTTCTTTCATTAATCCGTTAGCAAATGTTTTGCTATATACATTTTCCTTTTAAGAGGAGGAAT |  |  | cleaved RNA product abundance [3]: 0.6 |
| ACAGACGAAGGAGCCGCAAAGCAGTTATTAAGGGATGAATAACCCCTCAATATAAATATCTCTCACTTATTTAAA |  | 0.275 |  |
| ACAGACGAAGGAGCCGCAAAGAAGTTATTAAGGTATGAATAATCCCTCTATATAAATATCTCTCACTTATTTAAA | 0.0999 | 0.11 |  |

| Sequence | cleaved RNA product abundance [1] | cleaved RNA product abundance [2] | also measured |
| --- | --- | --- | --- |
| CGACATGTCCCGCTTCTTTCATTAATCCGTTAGAAATTGTTTTGCTATATACATTTACCTTTTAAGAGGAGGAAT |  |  | cleaved RNA product abundance [3]: 0.342 |
| ACAGACGAAGGAGCCGCAAAGAAGTTATTAAGGGATGAACAATCCCTCAATATATATATCTCTCACTTATTTAAA |  | 0.441 |  |
| ACAGACGAAGGAGCCGCAAAGAAGTGATTAAGGAATGAATAATCCCTCAATATAAATATCTCTCACTTATTTAAA |  | 0.115 |  |
| ACAGACGAAGGAGCCGCAAAGAAGTTATTAATGGATGAATAATACCTCAATATAAATATCTCTCACTTATTTAAA | 0.0824 | 0.126 |  |
| ACAGACGAAGGAGCCGCAAAGAAGTTATTAAGGGATGAATAATCACTCAATATAATTATCTCTCACTTATTTAAA |  | 0.0768 |  |
| ACAGACGAAGGAGCCGCAAAGAAGTTATTAAGGGATAAATAATCCCCCAATATAAATATCTCTCACTTATTTAAA |  | 0.22 |  |
| ACAGACGAAGGAGCCGCAAAGAAGTTATCAAGGAATGAATAATCCCTCAATATAAATATCTCTCACTTATTTAAA |  | 0.11 |  |
| ACAGACGAAGGAGCCGCAAAGAAGTTTTTAAGGGATGAATAATCCCTCAACATAAATATCTCTCACTTATTTAAA |  | 0.295 |  |
| ACAGACGAAGGAGCCGCAAAGAAGTTATTAAGGGATGAATAATCCCCTAATATAAATATCTCTCACTTATTTAAA |  | 1.25 |  |
| ACAGACGAAGGAGCCGCAAAGAAATTATTAAGGGATGAATGATCCCTCAATATAAATATCTCTCACTTATTTAAA |  | 0.661 |  |
| ACAGACGAAGGAGCCGCGAAGAAGTTATTAAGGGATGAATAATCCCTCAAAATAAATATCTCTCACTTATTTAAA |  | 0.319 |  |
| CGACATGTCCCGCTTCTTTCATTAATCCGTTATCAACTGTTTCGCTATATACATTTACCTTTTAAGAGGAGGAAT |  |  | cleaved RNA product abundance [3]: 0.192 |
| ACAGACGAAGGAGCCGCAAAGAAATTATTAAGGGATGAATAATCCCTCAATTTAAATATCTCTCACTTATTTAAA |  | 0.153 |  |
| CGACATGTCCCGCTTCTTTCATTAATCCGTTAGCAACTGTTTTGCAATATACATTTACCCTTTAAGAGGAGGAAT |  |  | cleaved RNA product abundance [3]: 0.405 |
| ACAGACGAAGGAGCCGCAAAGAAGTTATTAAGGGTTGAATAAACCCTCAATATAAATATCTCTCACTTATTTAAA | 1.07 | 0.406 |  |
| CGACATGTCCCGCTTCTTTCATTAATCCATTAGCAACTGTTTTGATATATACATTTACCTTTTAAGAGGAGGAAT |  |  | cleaved RNA product abundance [3]: 0.35 |
| ACAGACGAAGGAGCCGCTAAGAAGTTATTAAGGGATGAATAATTCCTCAATATAAATATCTCTCACTTATTTAAA | 0.713 |  |  |
| CGACATGTCCCGCTTCTTTCATTAATCCGTTAGCAACTGTTTTGCTATATTGATTTACCTTTTAAGAGGAGGAAT |  |  | cleaved RNA product abundance [3]: 0.263 |
| ACAGACGAAGGAGCCGCAAAGAAGTTATTAAGGGATGAATAATCCGTCATTATAAATATCTCTCACTTATTTAAA | 0.136 |  |  |
| ACAGACGAAGGAGCCGCAAAGATGTTATTAAGGGATGAATAAACCCTCAATATAAATATCTCTCACTTATTTAAA |  | 0.275 |  |

| Sequence | cleaved RNA product abundance [1] | cleaved RNA product abundance [2] | also measured |
| --- | --- | --- | --- |
| ACAGACGAAGGAGCCGCAAAGAAGTTATTAAGGGATTAATAAGCCCTCAATATAAATATCTCTCACTTATTTAAA | 0.453 | 0.667 |  |
| CGACATGTCCCGCTTCTTTCATTAATCCGTTAGCAACTTTTTTGCTATATACATTTACATTTTAAGAGGAGGAAT |  |  | cleaved RNA product abundance [3]: 1.72 |
| ACAGACGAAGGAGCCGCAAAGAAGTGATTAAGGGATGAATAATCCCTTAATATAAATATCTCTCACTTATTTAAA |  | 0.74 |  |
| ACAGACGAAGGAGCCGCAAAGAAGTTATTAAAGTATGAATAATCCCTCAATATAAATATCTCTCACTTATTTAAA | 0.0922 | 0.124 |  |
| ACAGACGAAGGAGCCGCAAAGACGTTATTAAGGGATGAATAATCCCTCCATATAAATATCTCTCACTTATTTAAA | 0.338 |  |  |
| ACAGACGAAGGAGCCGCAAAGAAGTTATTAAGGGATGAACAATTCCTCAATATAAATATCTCTCACTTATTTAAA |  | 0.44 |  |
| ACAGACGAAGGAGCCGCAAATAAGTTATTAAGGGCTGAATAATCCCTCAATATAAATATCTCTCACTTATTTAAA |  | 0.627 |  |
| ACAGACGAAGGAGCCGCAAAGACATTATTAAGGGATGAATAATCCCTCAATATAAATATCTCTCACTTATTTAAA |  | 0.85 |  |
| ACAGACGAAGGAGCCGCAAAGAAGTTATTAGGGCATGAATAATCCCTCAATATAAATATCTCTCACTTATTTAAA |  | 0.132 |  |
| ACAGACGAAGGAGCCGCAAAGAAGTTAGTAAGGGATGAATAATCCCTCAATATAAATGTCTCTCACTTATTTAAA | 0.187 |  |  |
| ACAGACGAAGGAGCCGCAAAGAAGTTATCAAGGGATGAATATTCCCTCAATATAAATATCTCTCACTTATTTAAA |  | 0.27 |  |
| ACAGACGAAGGAGCCGCAACGAAGTTAATAAGGGATGAATAATCCCTCAATATAAATATCTCTCACTTATTTAAA | 0.227 |  |  |
| CGACATGTCCCGCTTCTTTCATTAATCCGTTAACAACTGTTTTGCTATATACATATACCTTTTAAGAGGAGGAAT |  |  | cleaved RNA product abundance [3]: 0.195 |
| ACAGACGAAGGAGCCGCACAGAAGTTATTAAGGGATGAACAATCCCTCAATATAAATATCTCTCACTTATTTAAA |  | 0.614 |  |
| ACAGACGAAGGAGCCGCAAAGAAGTTATTAAGAGATAAATAATTCCTCAATATAAATATCTCTCACTTATTTAAA | 0.102 |  |  |
| CGACATGTCCCGCTTCTTTCATTAATCCGTTAGCAACTGTTTTGCAATATACATTAACCTTTTAAGAGGAGGAAT |  |  | cleaved RNA product abundance [3]: 0.691 |
| ACAGACGAAGGAGCCGCAAAGAAGTTATTAAGAGATGAATAATCCCACAATATAAATATCTCTCACTTATTTAAA | 0.0945 | 0.1 |  |
| ACAGACGAAGGAGCCGCGAAGAAGTTATTAAGGGATGAATTATCCCTCAATATAAATATCTCTCACTTATTTAAA |  | 0.548 |  |
| ACAGACGAAGGAGCCGCAAATAAGTTAATAAGGGATGAATAATCCCTCAATATAAATATCTCTCACTTATTTAAA | 0.247 | 0.343 |  |
